Where no end group is shown, it is not given here. The star is where a group is joined. For = O=C*
Experiments:
[1] = target: epitope tagged N-formyl peptide receptor (FPR) on ETFR cells (stably transfected rat basophilic leukemia cells) (human) (UniProt P21462); experiment: competition of unlabeled fMLP with ^3H-fMLP for binding to FPR expressing ETFR cells, filtration, 20 min at 37 C
[2] = target: epitope tagged N-formyl peptide receptor (FPR) on ETFR cells (stably transfected rat basophilic leukemia cells) (human) (UniProt P21462); experiment: cell-based or functional assay
[3] = target: T1, FPR-like receptor 1 (FPRL1) on transfected human embryonic kidney 293 cells (FPRL1/293 cells) (human, UniProt P25090 1-351); experiment: cell-based or functional assay
T1 sequence: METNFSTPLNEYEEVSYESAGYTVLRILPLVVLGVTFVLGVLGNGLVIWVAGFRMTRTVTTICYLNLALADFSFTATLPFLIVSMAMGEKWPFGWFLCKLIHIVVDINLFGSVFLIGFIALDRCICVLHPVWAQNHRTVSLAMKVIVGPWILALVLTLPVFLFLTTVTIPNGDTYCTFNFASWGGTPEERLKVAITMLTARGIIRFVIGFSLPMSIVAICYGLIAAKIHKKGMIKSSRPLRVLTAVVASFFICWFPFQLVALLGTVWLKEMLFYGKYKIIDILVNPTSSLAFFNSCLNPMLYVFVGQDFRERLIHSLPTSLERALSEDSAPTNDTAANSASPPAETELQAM

[4] = target: T2, epitope tagged N-formyl peptide receptor (FPR) on ETFR cells (stably transfected rat basophilic leukemia … (human, UniProt P21462 1-350)); experiment: cell-based or functional assay
T2 sequence: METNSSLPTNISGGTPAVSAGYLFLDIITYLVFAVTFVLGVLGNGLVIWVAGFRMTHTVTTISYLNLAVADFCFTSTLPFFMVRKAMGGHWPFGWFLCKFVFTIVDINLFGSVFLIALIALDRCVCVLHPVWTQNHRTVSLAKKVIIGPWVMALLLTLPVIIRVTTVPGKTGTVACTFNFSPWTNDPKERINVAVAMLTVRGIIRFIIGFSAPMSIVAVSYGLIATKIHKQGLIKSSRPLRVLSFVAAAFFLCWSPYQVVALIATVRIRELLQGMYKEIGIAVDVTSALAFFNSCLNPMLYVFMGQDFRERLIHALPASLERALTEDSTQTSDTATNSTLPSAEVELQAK

| Molecule | IC50 [1] | EC50 of migration of ETFR cells (chemotaxis) [2] | concentration required to induce a change in the ratio of 2 at 340/380 nm fluorescence (Ca^++) in FPR expressing cells [2] | EC50 of migration of FPRL1/293 cells (chemotaxis) [3] | concentration required to induce a change in the ratio of 0.6 at 340/380 nm fluorescence (Ca^++) in FPRL1/293 cells [3] | concentration required to induce a change in the ratio of 2 at 340/380 nm fluorescence (Ca^++) in FPR expressing cells [4] | excess of fMLP needed to desensitize the Ca^++ flux induced by T21/DP107 in FPRL1/293 cells [3] |
| --- | --- | --- | --- | --- | --- | --- | --- |
| N-formyl-methionyl-leucyl-phenylalanine (fMLP) (peptide) | 1 nM | 0.5 nM | 1e-10 |  |  |  |  |
| NNLLRAIEAQQHLLQLTVWGIKQLQARILAVERYLKDQ (also: some embodiments acylated, form not given here) [T21/DP107] |  |  |  | 50 nM | 5e-07 | 1e-05 |  |
| For-Met-Leu-Phe (also: tritiated (3H) form used as tracer) [N-formyl-methionyl-leucyl-phenylalanine (fMLP)] |  |  |  |  | 5e-05 |  | 1000 fold |
